Results on two substances are retold here after publication PMC5404920.

The assay has as its target Mg-ATP actin (15% Alexa 488-labeled), assembled into actin filaments (F-actin) (not stated (chicken or rabbit skeletal muscle)) (UniProt P68135). Kind of assay: TIRF microscopy; two-color TIRFM of 1.5 μM Mg-ATP actin (15% Alexa 488) assembling with Cy5-labeled Cdc8 at 1 μM and above; 10 mM imidazole pH 7.0, 50 mM KCl, 1 mM MgCl2, 1 mM EGTA, 0.5% methylcellulose, room temperature.

Regarding “tropomyosin AlaSer-Cdc8 D142C, Cy5-labeled (natural protein)”, the percent of actin filaments associated with tropomyosin was found to be 100%.

“tropomyosin AlaSer-Cdc8 I76C, Cy5-labeled (natural protein)”: the kon per unit filament length of the first observed Cdc8 binding (random-binding model fitted to the TIRFM data) stood at 4e-06 s⁻¹ nm⁻¹; the percent of F-actin coated at 2 μM Cdc8 and higher came out at 98%; the percent of actin filament sites coated at 1.25 μM Cdc8 is 40%; the percent of actin filaments associated with tropomyosin was 100%. This substance registered a percent of total actin filament coverage at 1 μM Cdc8 of 2%, a spreading rate of Cdc8 toward the barbed end (Cdc8 molecules sec^-1 μM^-1) of 3.2 and a spreading rate of Cdc8 toward the pointed end (Cdc8 molecules sec^-1 μM^-1) of 2.4.
